Data as given in paper doi:10.1101/406538 (bioRxiv, 2018).

Target: T1, ATI2-N, N-terminal region of ATG8 Interacting Protein 2 (M1-T193) (Arabidopsis thaliana, UniProt Q8VY98 1-193)
T1 sequence (looked up): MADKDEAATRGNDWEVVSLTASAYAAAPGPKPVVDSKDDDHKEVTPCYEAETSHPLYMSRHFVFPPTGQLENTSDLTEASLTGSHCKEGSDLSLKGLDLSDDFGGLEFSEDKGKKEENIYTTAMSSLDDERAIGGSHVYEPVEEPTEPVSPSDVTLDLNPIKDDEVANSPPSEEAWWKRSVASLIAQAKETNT
Test: NMR titration

B1: ATG8f, processed form (1-117), recombinant (natural protein, Arabidopsis thaliana, UniProt Q8VYK7 1-117, looked up)
chain: MAKSSFKQEHDLEKRRAEAARIREKYPDRIPVIVEKAEKSDIPTIDKKKYLVPADLTVGQFVYVIRKRIKLSAEKAIFIFVDNVLPPAGALMSSVYEEKKDDDGFLYVTYSGENTFG
Does B1 bind?
Result: binds
